# In patent US20210130436A1:
# Legend:
# [1] = biological target: PD-1 (PDCD1) (Homo sapiens (Human)) (UniProt Q15116); assay: cell-based or functional assay
# [2] = biological target: CD28, endogenously expressed on Jurkat/IL2 reporter cells (human) (UniProt P10747); assay: flow cytometry, Jurkat/IL2 reporter cells (endogenous CD28)
# [3] = biological target: human PD-L1, full length, expressed on transfected HEK293 cells (human) (UniProt Q9NZQ7); assay: flow cytometry, HEK293 cells transfected with human PD-L1
# [4] = biological target: CD28 on Jurkat/IL2 reporter cells (human) (UniProt P10747); assay: cell-based or functional assay
# [5] = biological target: PD-L1 on K562/OKT3/PD-L1 artificial antigen presenting cells (UniProt Q9NZQ7); assay: cell-based or functional assay
# Sequence of PD-L1 on K562/OKT3/PD-L1 artificial antigen presenting cells (Q9NZQ7 19-290): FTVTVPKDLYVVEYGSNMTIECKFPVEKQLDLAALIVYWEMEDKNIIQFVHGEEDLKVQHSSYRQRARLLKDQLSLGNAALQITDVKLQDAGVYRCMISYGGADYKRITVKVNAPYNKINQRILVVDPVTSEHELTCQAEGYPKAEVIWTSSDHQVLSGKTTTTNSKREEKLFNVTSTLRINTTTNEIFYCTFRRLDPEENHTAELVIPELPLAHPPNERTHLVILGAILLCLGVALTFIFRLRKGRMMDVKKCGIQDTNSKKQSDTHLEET
# Sequence of human PD-L1, full length, expressed on transfected HEK293 cells (human) (Q9NZQ7 19-290): as above
# Sequence of PD-1 (PDCD1) (Homo sapiens (Human)) (Q15116 21-288): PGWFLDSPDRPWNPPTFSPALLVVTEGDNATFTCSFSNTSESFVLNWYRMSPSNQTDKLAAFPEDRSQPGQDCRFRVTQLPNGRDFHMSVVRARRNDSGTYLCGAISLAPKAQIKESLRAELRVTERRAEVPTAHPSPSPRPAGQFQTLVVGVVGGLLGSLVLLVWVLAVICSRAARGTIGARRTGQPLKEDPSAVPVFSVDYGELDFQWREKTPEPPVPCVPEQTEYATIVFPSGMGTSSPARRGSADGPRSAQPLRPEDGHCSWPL
# Sequence of Wild Type PD-L2 IgV-Fc (Q9BQ51 20-121): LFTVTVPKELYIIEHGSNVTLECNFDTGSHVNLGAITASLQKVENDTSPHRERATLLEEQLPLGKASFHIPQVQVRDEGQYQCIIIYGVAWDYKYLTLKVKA
substance,measurement,setting,value
PD-L2 I13V/H15Q/Q82R IgV-Fc (from UniProt Q9BQ51 20-121) (Fc fusion),IFN gamma levels pg/mL (MLR),[1],1430 pg/mL
Wild Type PD-L2 IgV-Fc (from UniProt Q9BQ51 20-121) (Fc fusion),IFN gamma levels pg/mL (MLR),[1],1380 pg/mL
variant CD80 IgV-Fc E35D/D46E/M47L/V68M/T79M/L85M/L97Q (from UniProt P33681 35-141) (Fc fusion),MFI at 33.3 nM,[2],14 MFI
PD-L2 E44D IgV-Fc (from UniProt Q9BQ51 20-121) (Fc fusion),IFN gamma levels pg/mL (MLR),[1],1500 pg/mL
variant CD80 IgV-Fc Q27L/E35D/M47I/T57I/L70Q/E88D (from UniProt P33681 35-141) (Fc fusion),MFI at 22.2 nM,[3],1050 MFI
PD-L2 H15Q/T47A/Q72H/R76G IgV-Fc (from UniProt Q9BQ51 20-121) (Fc fusion),IFN gamma levels pg/mL (MLR),[1],1460 pg/mL
PD-L2 I13V/Q72H/R76G/I86T IgV-Fc (from UniProt Q9BQ51 20-121) (Fc fusion),IFN gamma levels pg/mL (MLR),[1],1950 pg/mL
PD-L2 E59G/Q82R IgV-Fc (from UniProt Q9BQ51 20-121) (Fc fusion),IFN gamma levels pg/mL (MLR),[1],1510 pg/mL
PD-L2 H15Q/L33P/T47A/S67L/P71S/V89D IgV-Fc (from UniProt Q9BQ51 20-121) (Fc fusion),IFN gamma levels pg/mL (MLR),[1],1290 pg/mL
variant CD80 IgV-Fc T13R/M42V/M47I/A71D (from UniProt P33681 35-141) (Fc fusion),MFI at 22.2 nM,[3],1870 MFI
variant CD80 IgV-Fc H18Y/A71D/L72P/E88V (from UniProt P33681 35-141) (Fc fusion),MFI at 22.2 nM,[3],1080 MFI
PD-L2 E44D/S67L/Q72H/Q82R/V89D IgV-Fc (from UniProt Q9BQ51 20-121) (Fc fusion),IFN gamma levels pg/mL (MLR),[1],1280 pg/mL
PD-L2 H15Q/T47A/Q82R IgV-Fc (from UniProt Q9BQ51 20-121) (Fc fusion),IFN gamma levels pg/mL (MLR),[1],1320 pg/mL
PD-L2 H15Q/E44D/R76G/I85F IgV-Fc (from UniProt Q9BQ51 20-121) (Fc fusion),IFN gamma levels pg/mL (MLR),[1],1390 pg/mL
variant CD80 IgV-Fc V22L/E35G/A71D/L72P (from UniProt P33681 35-141) (Fc fusion),MFI at 22.2 nM,[3],1400 MFI
variant CD80 IgV-Fc M47V/I69F/A71D/V83I (from UniProt P33681 35-141) (Fc fusion),MFI at 22.2 nM,[3],3400 MFI
PD-L2 H15Q/T47A/K65R/S67L/Q82R/V89D IgV-Fc (from UniProt Q9BQ51 20-121) (Fc fusion),IFN gamma levels pg/mL (MLR),[1],1340 pg/mL
PD-L2 I13V/H15Q/E44D/V89D IgV-Fc (from UniProt Q9BQ51 20-121) (Fc fusion),IFN gamma levels pg/mL (MLR),[1],1380 pg/mL
PD-L2 H15Q/S67L/R76G IgV-Fc (from UniProt Q9BQ51 20-121) (Fc fusion),IFN gamma levels pg/mL (MLR),[1],1430 pg/mL
PD-L2 I13V/H15Q/L33F/T47A/Q82R/V89D IgV-Fc (from UniProt Q9BQ51 20-121) (Fc fusion),IFN gamma levels pg/mL (MLR),[1],1470 pg/mL
CD80 E35D/M38T/M43V/M47V/N48R/L85Q IgV-Fc (inert) (Fc fusion),"Fold Increase over WT CD80-IgV-Fc (RLU, Jurkat/IL2 + K562/OKT3/PD-L1 reporter assay, 50 nM)",[4],3.3 fold
same,"Relative Luciferase Units (RLU), Jurkat/IL2 + K562/OKT3/PD-L1 reporter assay, CD80-Fc Conc 50 nM",[4],680 RLU
same,"Fold Increase over WT CD80-IgV-Fc (RLU, Jurkat/IL2 + K562/OKT3/PD-L1 reporter assay, 50 nM)",[5],3.3 fold
same,"Relative Luciferase Units (RLU), Jurkat/IL2 + K562/OKT3/PD-L1 reporter assay, CD80-Fc Conc 50 nM",[5],680 RLU
PD-L2 I13V/H15Q/E44V/T47A/Q82R/V89D IgV-Fc (from UniProt Q9BQ51 20-121) (Fc fusion),IFN gamma levels pg/mL (MLR),[1],1270 pg/mL
CD80 E35D/M47V/A71G/E88D IgV-Fc (inert) (Fc fusion),"Fold Increase over WT CD80-IgV-Fc (RLU, Jurkat/IL2 + K562/OKT3/PD-L1 reporter assay, 50 nM)",[4],5.9 fold
same,"Relative Luciferase Units (RLU), Jurkat/IL2 + K562/OKT3/PD-L1 reporter assay, CD80-Fc Conc 50 nM",[4],1220 RLU
same,"Fold Increase over WT CD80-IgV-Fc (RLU, Jurkat/IL2 + K562/OKT3/PD-L1 reporter assay, 50 nM)",[5],5.9 fold
same,"Relative Luciferase Units (RLU), Jurkat/IL2 + K562/OKT3/PD-L1 reporter assay, CD80-Fc Conc 50 nM",[5],1220 RLU
PD-L2 N24D IgV-Fc (from UniProt Q9BQ51 20-121) (Fc fusion),IFN gamma levels pg/mL (MLR),[1],1980 pg/mL
PD-L2 I13V/H15Q/T47A/Q72H/R76G IgV-Fc (from UniProt Q9BQ51 20-121) (Fc fusion),IFN gamma levels pg/mL (MLR),[1],1470 pg/mL
CD80 E35D/K37E/M47V/N48D/L85Q/D90N IgV-Fc (inert) (Fc fusion),"Fold Increase over WT CD80-IgV-Fc (RLU, Jurkat/IL2 + K562/OKT3/PD-L1 reporter assay, 50 nM)",[4],4.1 fold
same,"Relative Luciferase Units (RLU), Jurkat/IL2 + K562/OKT3/PD-L1 reporter assay, CD80-Fc Conc 50 nM",[4],851 RLU
same,"Fold Increase over WT CD80-IgV-Fc (RLU, Jurkat/IL2 + K562/OKT3/PD-L1 reporter assay, 50 nM)",[5],4.1 fold
same,"Relative Luciferase Units (RLU), Jurkat/IL2 + K562/OKT3/PD-L1 reporter assay, CD80-Fc Conc 50 nM",[5],851 RLU
variant CD80 IgV-Fc Q27H/E35G/A71D/L72P/T79I (from UniProt P33681 35-141) (Fc fusion),MFI at 22.2 nM,[3],1450 MFI
